{"source": "the RNAGym collection of RNA variant scans (doi:10.7554/elife.80360)", "parents": {"B1": {"name": "Hairpin Ribozyme (parent)", "chain": "GUCCUCUUUCACGUGCGCGUGAAAGAGAGAAGUGAACCAGAGAAACACACGUUGUGGUAUAUUACCUGGUA"}}, "data": [{"variants_of": "B1", "experiment": "self-cleavage, relative activity (ratio to wild type); higher = more cleavage; co-transcriptional", "values": [{"variant": "U2A A44G", "self-cleavage": 0.119}, {"variant": "U2C G57C", "self-cleavage": 0.242}, {"variant": "U2G C50U", "self-cleavage": 0.157}, {"variant": "U2G C50G", "self-cleavage": 0.1}, {"variant": "U2G C65U", "self-cleavage": 0.163}, {"variant": "U2G C65A", "self-cleavage": 0.402}, {"variant": "U2A A71G", "self-cleavage": 0.405}, {"variant": "U2G A22G", "self-cleavage": 0.264}, {"variant": "U2G A22C", "self-cleavage": 0.354}, {"variant": "G1C C66G", "self-cleavage": 0.0728}, {"variant": "U2C U9A", "self-cleavage": 0.109}, {"variant": "U2C U9C", "self-cleavage": 0.139}, {"variant": "U2C U9G", "self-cleavage": 0.0171}, {"variant": "U2A A11U", "self-cleavage": 0.269}, {"variant": "G1C U55G", "self-cleavage": 0.132}, {"variant": "U2C U5G", "self-cleavage": 0.0932}, {"variant": "U2C U5C", "self-cleavage": 0.0555}, {"variant": "U2G C16A", "self-cleavage": 0.398}, {"variant": "U2G A36G", "self-cleavage": 0.274}, {"variant": "U2G A36C", "self-cleavage": 0.208}, {"variant": "G1C U62C", "self-cleavage": 0.0543}, {"variant": "U2A G21A", "self-cleavage": 0.204}, {"variant": "U2A G21C", "self-cleavage": 0.186}, {"variant": "G1U U58G", "self-cleavage": 0.253}, {"variant": "G1U A11C", "self-cleavage": 0.0545}, {"variant": "U2A U33G", "self-cleavage": 0.151}, {"variant": "U2A U33C", "self-cleavage": 0.0635}, {"variant": "G1U C12A", "self-cleavage": 0.0913}, {"variant": "G1C G19C", "self-cleavage": 0.0663}, {"variant": "G1C G19U", "self-cleavage": 0.194}, {"variant": "U2G A35U", "self-cleavage": 0.27}, {"variant": "U2A C48G", "self-cleavage": 0.162}, {"variant": "U2A C48U", "self-cleavage": 0.104}, {"variant": "U2A A41C", "self-cleavage": 0.379}, {"variant": "U2A A41G", "self-cleavage": 0.0798}, {"variant": "U2C G21C", "self-cleavage": 0.213}, {"variant": "U2C G21U", "self-cleavage": 0.185}, {"variant": "G1U A26C", "self-cleavage": 0.103}, {"variant": "G1U A26U", "self-cleavage": 0.068}, {"variant": "U2C G42A", "self-cleavage": 0.0595}, {"variant": "G1U A64U", "self-cleavage": 0.119}, {"variant": "G1U A64C", "self-cleavage": 0.166}, {"variant": "U2A A26C", "self-cleavage": 0.311}, {"variant": "G1C C18U", "self-cleavage": 0.139}, {"variant": "G1C C18G", "self-cleavage": 0.307}, {"variant": "G1C C18A", "self-cleavage": 0.177}, {"variant": "U2C U8A", "self-cleavage": 0.191}, {"variant": "U2C U8G", "self-cleavage": 0.118}, {"variant": "U2C G51U", "self-cleavage": 0.172}, {"variant": "U2G A45U", "self-cleavage": 0.0683}, {"variant": "U2G A45C", "self-cleavage": 0.0592}, {"variant": "U2A C10U", "self-cleavage": 0.208}, {"variant": "U2A C10A", "self-cleavage": 0.132}, {"variant": "U2A C10G", "self-cleavage": 0.238}, {"variant": "U2C A22C", "self-cleavage": 0.161}, {"variant": "U2C A45U", "self-cleavage": 0.0729}, {"variant": "U2G C4A", "self-cleavage": 0.242}, {"variant": "U2G C4U", "self-cleavage": 0.15}, {"variant": "G1C G40A", "self-cleavage": 0.0839}, {"variant": "G1C G40U", "self-cleavage": 0.202}, {"variant": "G1U U53C", "self-cleavage": 0.179}, {"variant": "G1U G21C", "self-cleavage": 0.112}, {"variant": "G1U G21U", "self-cleavage": 0.109}, {"variant": "G1U G27C", "self-cleavage": 0.113}, {"variant": "U2A U5C", "self-cleavage": 0.137}, {"variant": "U2A U5A", "self-cleavage": 0.137}, {"variant": "G1C C4A", "self-cleavage": 0.126}, {"variant": "G1C C4U", "self-cleavage": 0.228}, {"variant": "G1U U63A", "self-cleavage": 0.215}, {"variant": "G1U U63C", "self-cleavage": 0.181}, {"variant": "U2C A23C", "self-cleavage": 0.144}, {"variant": "G1U G32U", "self-cleavage": 0.0476}, {"variant": "G1C G29U", "self-cleavage": 0.129}, {"variant": "U2C A61C", "self-cleavage": 0.0902}, {"variant": "G1U U33C", "self-cleavage": 0.173}, {"variant": "G1C G51A", "self-cleavage": 0.343}, {"variant": "U2A G56U", "self-cleavage": 0.179}, {"variant": "U2C C46U", "self-cleavage": 0.133}, {"variant": "U2A G13U", "self-cleavage": 0.186}, {"variant": "U2C C16U", "self-cleavage": 0.163}, {"variant": "U2C U60A", "self-cleavage": 0.312}, {"variant": "U2C U60C", "self-cleavage": 0.222}, {"variant": "U2C U60G", "self-cleavage": 0.226}, {"variant": "G1C C48G", "self-cleavage": 0.086}, {"variant": "G1C C48U", "self-cleavage": 0.189}, {"variant": "G1C U53C", "self-cleavage": 0.239}, {"variant": "U2G A23U", "self-cleavage": 0.265}, {"variant": "U2C A41C", "self-cleavage": 0.0362}, {"variant": "G1U A43G", "self-cleavage": 0.0972}, {"variant": "G1U A43C", "self-cleavage": 0.169}, {"variant": "G1U A43U", "self-cleavage": 0.142}, {"variant": "G1C U33G", "self-cleavage": 0.228}, {"variant": "G1C U33C", "self-cleavage": 0.134}, {"variant": "U2C G13U", "self-cleavage": 0.121}, {"variant": "U2C G13C", "self-cleavage": 0.121}, {"variant": "G1C G32U", "self-cleavage": 0.171}, {"variant": "U2A C18U", "self-cleavage": 0.314}, {"variant": "G1U G17C", "self-cleavage": 0.112}, {"variant": "G1U G17A", "self-cleavage": 0.2}, {"variant": "G1C C65G", "self-cleavage": 0.148}, {"variant": "U2G A59U", "self-cleavage": 0.0332}, {"variant": "U2G A59C", "self-cleavage": 0.223}, {"variant": "U2C U53C", "self-cleavage": 0.0859}, {"variant": "U2C U53G", "self-cleavage": 0.0768}, {"variant": "U2G G17C", "self-cleavage": 0.367}, {"variant": "G1C G27C", "self-cleavage": 0.201}, {"variant": "U2C G56U", "self-cleavage": 0.178}, {"variant": "U2G C66G", "self-cleavage": 0.124}, {"variant": "G1C G15U", "self-cleavage": 0.24}, {"variant": "G1C G15C", "self-cleavage": 0.117}, {"variant": "U2C G19U", "self-cleavage": 0.161}, {"variant": "U2C A59U", "self-cleavage": 0.108}, {"variant": "U2C G32A", "self-cleavage": 0.138}, {"variant": "U2C G32C", "self-cleavage": 0.174}, {"variant": "U2C C18A", "self-cleavage": 0.118}, {"variant": "U2C C18G", "self-cleavage": 0.154}, {"variant": "U2C U67C", "self-cleavage": 0.0838}, {"variant": "U2A G15C", "self-cleavage": 0.391}, {"variant": "G1C U9C", "self-cleavage": 0.198}, {"variant": "U2C U33C", "self-cleavage": 0.223}, {"variant": "U2C U33G", "self-cleavage": 0.0942}, {"variant": "U2A G40U", "self-cleavage": 0.129}, {"variant": "G1U C66U", "self-cleavage": 0.0959}, {"variant": "U2G G57C", "self-cleavage": 0.117}, {"variant": "G1U G13A", "self-cleavage": 0.0563}, {"variant": "U2C G68U", "self-cleavage": 0.161}, {"variant": "U2C U62C", "self-cleavage": 0.203}, {"variant": "U2G C37U", "self-cleavage": 0.319}, {"variant": "U2G C37A", "self-cleavage": 0.131}, {"variant": "U2C C66A", "self-cleavage": 0.0248}, {"variant": "U2C C66G", "self-cleavage": 0.0316}, {"variant": "U2C G15C", "self-cleavage": 0.243}, {"variant": "U2C U14C", "self-cleavage": 0.359}, {"variant": "U2A A49G", "self-cleavage": 0.188}, {"variant": "U2A G57U", "self-cleavage": 0.109}, {"variant": "U2G C3U", "self-cleavage": 0.181}, {"variant": "U2A C6G", "self-cleavage": 0.247}, {"variant": "U2A C6A", "self-cleavage": 0.238}, {"variant": "U2A C6U", "self-cleavage": 0.182}, {"variant": "U2G G42A", "self-cleavage": 0.0588}, {"variant": "U2C G17A", "self-cleavage": 0.15}, {"variant": "U2C G17C", "self-cleavage": 0.168}, {"variant": "G1U C4U", "self-cleavage": 0.206}, {"variant": "U2C A30G", "self-cleavage": 0.349}, {"variant": "G1C C38G", "self-cleavage": 0.112}, {"variant": "G1C C38A", "self-cleavage": 0.281}, {"variant": "G1C C16A", "self-cleavage": 0.0908}, {"variant": "U2A C4A", "self-cleavage": 0.165}, {"variant": "G1U C38A", "self-cleavage": 0.154}, {"variant": "G1U C48G", "self-cleavage": 0.0484}, {"variant": "U2A G17C", "self-cleavage": 0.22}, {"variant": "U2G A44G", "self-cleavage": 0.0352}, {"variant": "U2A C3A", "self-cleavage": 0.401}, {"variant": "U2G A30G", "self-cleavage": 0.0671}, {"variant": "U2A G27A", "self-cleavage": 0.127}, {"variant": "U2A G27C", "self-cleavage": 0.108}, {"variant": "G1C U7C", "self-cleavage": 0.488}, {"variant": "G1C U7A", "self-cleavage": 0.229}, {"variant": "G1U G54U", "self-cleavage": 0.141}, {"variant": "G1U G54A", "self-cleavage": 0.0766}, {"variant": "U2G C12G", "self-cleavage": 0.184}, {"variant": "G1U C50G", "self-cleavage": 0.124}, {"variant": "G1C G54U", "self-cleavage": 0.274}, {"variant": "G1C G54C", "self-cleavage": 0.072}, {"variant": "U2A C46G", "self-cleavage": 0.0818}, {"variant": "U2C G34C", "self-cleavage": 0.208}, {"variant": "U2C G34U", "self-cleavage": 0.316}]}]}
